In patent US20210332123A1 (SUZHOU KANOVA BIOPHARMACEUTICAL, published 2021):
Residue numbers refer to the chain shown, from its start.

T1: cynomolgus IL-25 (cynomolgus, UniProt G7P9V9 33-176)
T1 construct: In-house production
T1 sequence: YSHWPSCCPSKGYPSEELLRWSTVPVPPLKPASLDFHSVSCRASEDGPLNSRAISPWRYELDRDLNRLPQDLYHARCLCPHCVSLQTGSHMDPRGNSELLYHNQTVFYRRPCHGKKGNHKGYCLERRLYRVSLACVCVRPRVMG

T2: human IL-25 (human, UniProt Q9H293 33-177)
T2 construct: ELISA used bought R&D systems #1258-IL-025/CF; Treated as one molecule; also called IL-17E; human IL-17E
T2 sequence (looked up): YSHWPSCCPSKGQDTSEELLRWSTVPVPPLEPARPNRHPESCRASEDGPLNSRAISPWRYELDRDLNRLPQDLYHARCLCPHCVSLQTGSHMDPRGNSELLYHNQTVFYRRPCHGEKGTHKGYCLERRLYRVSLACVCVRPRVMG

T3: human IL-17A (human, UniProt Q16552 24-155, limits assumed)
T3 sequence (looked up): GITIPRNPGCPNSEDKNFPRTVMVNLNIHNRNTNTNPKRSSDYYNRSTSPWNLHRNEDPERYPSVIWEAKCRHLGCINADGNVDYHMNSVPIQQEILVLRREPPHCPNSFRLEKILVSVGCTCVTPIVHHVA

T4: human IL-17D (human, UniProt Q8TAD2 18-202, limits assumed)
T4 sequence (looked up): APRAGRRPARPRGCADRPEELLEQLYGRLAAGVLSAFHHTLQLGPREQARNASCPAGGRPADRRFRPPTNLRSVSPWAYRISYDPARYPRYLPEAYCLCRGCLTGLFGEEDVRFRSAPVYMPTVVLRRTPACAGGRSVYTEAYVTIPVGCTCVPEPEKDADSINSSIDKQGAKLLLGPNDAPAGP

T5: human IL-17F (human, UniProt Q96PD4 31-163)
T5 sequence (looked up): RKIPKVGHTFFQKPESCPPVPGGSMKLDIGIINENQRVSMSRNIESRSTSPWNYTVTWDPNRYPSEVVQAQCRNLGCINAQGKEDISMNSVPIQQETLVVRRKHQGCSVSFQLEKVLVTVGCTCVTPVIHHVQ

B1: murine anti-IL-25 monoclonal antibody 18H3 (antibody, V domains shown)
VH: QVTLKESGPGILQPSQTLSLTCSFSGFSLSTSGMGLGWIRQPSGKGLEWLAHIWWDDVKHYKPALKSRLTISKDISSSQVFLTIASVDTADTATYYCARMGQLHYYGYDYAMDYWGQGTSVTVSS
VL: QIVLTQSPAIMSASPGEKVTISCSASSSVSYMYWYQQKPGSSPKPWIYRTSNLASGVPARFSGSGSGTSYSLTISSMEAEDAATYYCQLYHSYPPTWTFGGGTKLEIK
notes: also called parental antibody; parental murine mAb
B2: VH1-1 + VL2-1 (humanized anti-IL-25 antibody formed by VH1-1 and VL2-1) (antibody, V domains shown)
VH: QVTLKESGPTLVKPTQTLTLTCTFSGFSLSTSGMGLGWIRQPPGKALEWLAHIWWDDVKHYKPALKSRLTITKDTSKNQVVLTMTNVDPVDTATYYCARMGQLHYYGYDYAMDYWGQGTLVTVSS
VL: DIQLTQSPSFLSASVGDRVTITCSASSSVSYMYWYQQKPGKAPKPLIYRTSNLASGVPSRFSGSGSGTEYTLTISSMQPEDFATYYCQLYHSYPPTWTFGQGTKLEIK
B3: VH2-1 + VL1-2 (humanized anti-IL-25 antibody formed by VH2-1 and VL1-2) (antibody, V domains shown)
VH: B2 VH with K5R, T10A, V12L, T72S, M84I
VL: EIVLTQSPATLSASPGERVTISCSASSSVSYMYWYQQKPGQAPRPLIYRTSNLASGVPARFSGSGSGTDYTLTISSMEPEDFATYYCQLYHSYPPTWTFGQGTKLEIK
B4: VH1-1 + VL1-2 (humanized anti-IL-25 antibody formed by VH1-1 and VL1-2) (antibody, V domains shown)
VH: B2 VH
VL: B3 VL
notes: Captured by anti-human Fc gamma antibody in SPR
B5: VH2-1 + VL2-1 (humanized anti-IL-25 antibody formed by VH2-1 and VL2-1) (antibody, V domains shown)
VH: B2 VH with K5R, T10A, V12L, T72S, M84I
VL: B2 VL

Tests used:
[1] = biological target: T1, cynomolgus IL-25; assay: ELISA, plate coated with cynomolgus IL-25 (cynoIL25-his), OD450, Example 7 [panel cynoIL25-his]
[2] = biological target: T2, human IL-25; assay: ELISA, plate coated with human IL-25 (hIl25-HIS), OD450, Example 4; unit from the axis lg(nM) and paragraph 95
Experimental: MaxiSorp 96-well plates (NUNC #449824, www.thermofisher.com) were coated with 2 μg/ml human IL-25 (R&D systems #1258-IL-025/CF) in 1×PBS (50 μl/well). Plates were incubated at 4° C. overnight. Coating solution was removed and plates were washed once with 200 μl/well PBST (1×PBS with 0.05% tween-20). Then 200 μl/well blocking buffer (1×PBS with 0.05% tween-20, 3% BSA) were added and incubated at room temperature for 1 hour. Blocking buffer was removed and plates were washed three times with 200 μl/well PBST (1×PBS with 0.05% tween-20). Anti-IL-25 antibodies (produced in Example 2) were diluted to 10, 3.33, 1.11, 0.37, 0.123, 0.041, 0.0137, 0.0046, 0.0015, 0.00031, 0.000102, 0.000034 μg/ml by 1×PBS and added to plates (50 μl/well). Plates were incubated at room temperature for 2 hours. Antibodies in the wells were removed and plates were washed three times with 200 μl/well PBST (1×PBS with 0.05% tween-20). Goat anti-human IgG (H&L)-HRP secondary antibody (Jackson Immuno Research #109-035-088, www.jacksonimmuno.com) was diluted 1:5000 in 1×PBS and added to each well (50 μl/well). Plates were incubated at room temperature for 1 hour. Secondary antibody was removed and plates were washed seven times with 200 μl/well PBST (1×PBS with 0.05% tween-20) each time. 50 μl/well TMB (eBioscience #85-00-4201-56, www.ebioscience.com) was added and plates were incubated at room temperature for several minutes. Then 50 μl/well 2N H₂SO₄ was added to stop the reaction. Optical density was measured at 450 nm in relation to human IL-25 binding.

[3] = biological target: T3, human IL-17A; assay: ELISA (FIG. 4)
Experimental: (§1) MaxiSorp 96-well plates (NUNC #449824, www.thermofisher.com) were coated with 2 μg/ml human IL-17A (Cell Signaling #89285F, www.cellsignal.com), human IL-17F (Cell Signaling #8906LC, www.cellsignal.com), human IL-17B (Peprotech #200-28, www.peprotech.com), human IL-17C (R&D systems #1234-IL-025/CF, www.rndsystems.com), human IL-17D ((Peprotech #200-27, www.peprotech.com), human IL-17E (R&D systems #1258-IL-025/CF, www.rndsystems.com) in 1×PBS (50 μl/well) respectively. Plates were incubated at 4° C. overnight. Coating solution was removed and plates were washed once with 200 μl/well PBST (1×PBS with 0.05% tween-20). Then 200 μl/well blocking buffer (1×PBS with 0.05% tween-20, 3% BSA) was added and incubated at room temperature for 1 hour. Blocking buffer was removed and plates were washed three times with 200 μl/well PBST (1×PBS with 0.05% tween-20). The anti-IL-25 antibodies (produced in Example 2), were diluted to 10, 3.33, 1.11, 0.37, 0.123, 0.041, 0.0137, 0.0046, 0.0015, 0.00031, 0.000102, 0.000034 μg/ml by 1×PBS and added to the plates (50 μl/well). Plates were incubated at room temperature for 2 hours. Antibodies in the wells were removed and plates were washed three times with 200 μl/well PBST (1×PBS with 0.05% tween-20) each time. Goat anti-human IgG(H&L)-HRP secondary antibody (Jackson Immuno Research #109-035-088, www.jacksonimmuno.com) was diluted 1:5000 in 1×PBS and added to each well (50 μl/well). Plates were incubated at room temperature for 1 hour. Secondary antibody was removed and plates were washed seven times with 200 μl/well PBST (1×PBS with 0.05% tween-20) each time. 50 μl/well TMB (eBioscience #85-00-4201-56, www.ebioscience.com) was added and plates were incubated at room temperature for several minutes. Then 50 μl/well 2N H₂SO₄ was added to stop the reaction. Plates were read at 450 nm.

[4] = biological target: T4, human IL-17D; assay: ELISA (FIG. 4)
Experimental: as §1

[5] = biological target: T5, human IL-17F; assay: ELISA (FIG. 4)
Experimental: as §1

[6] = biological target: T2, human IL-25; assay: cell-based or functional assay

| Binder | EC50 [1] [nM] | EC50 [2] [nM] | binding result [3] | binding result [4] | binding result [5] | IC50, CXCL1/GROalpha production of HT-29 cells stimulated by human IL-25 [A] [6] [nM] |
| --- | --- | --- | --- | --- | --- | --- |
| B1 | 2.35 | 0.187 | no binding | no binding | no binding | – |
| B2 | 1.51 | 0.154 | – | – | – | 7.23 |
| B3 | 1.12 | 0.196 | – | – | – | – |
| B4 | – | 0.252 | – | – | – | 11.4 |
| B5 | – | 0.187 | – | – | – | – |
